Experimental data: patent publication US7514215B2, “Sulfotransferase SULT2A1 sequence variants” (Mayo Foundation for Medical Education and Research, priority 2001, dated 2009)
Where a chain is given by its changes, count along the chain named.

B1: Ala63Pro: SULT2A1 allozyme having a proline at amino acid residue 63 in place of alanine (protein, UniProt Q06520 1-285, looked up, variant A63P)
Sulfotransferase 2A1: MSDDFLWFEGIAFPTMGFRSETLRKVRDEFVIRDEDVIILTYPKSGTNWLAEILCLMHSKGDPKWIQSVPIWERSPWVESEIGYTALSETESPRLFSSHLPIQLFPKSFFSSKAKVIYLMRNPRDVLVSGYFFWKNMKFIKKPKSWEEYFEWFCQGTVLYGSWFDHIHGWMPMREEKNFLLLSYEELKQDTGRTIEKICQFLGKTLEPEELNLILKNSSFQSMKENKMSNYSLLSVDYVVDKAQLLRKGVSGDWKNHFTVAQAEDFDKLFQEKMADLPRELFPWE
B2: Lys227Glu: SULT2A1 allozyme having a glutamate at amino acid residue 227 in place of a lysine (protein, UniProt Q06520 1-285, looked up, variant K227E)
Sulfotransferase 2A1: B1 Sulfotransferase 2A1 with P63A, K227E
B3: Ala261Thr: SULT2A1 allozyme having a threonine at amino acid 261 in place of an alanine (protein)
chain: B1 Sulfotransferase 2A1 with P63A, T90S, A261T
B4: 63Pro/261Thr: SULT2A1 polypeptide with a proline at position 63 and a threonine at position 261 (double variant) (protein, UniProt Q06520 1-285, looked up, variant A63P A261T)
Sulfotransferase 2A1: B1 Sulfotransferase 2A1 with A261T
B5: WT: recombinant wild type (reference) human SULT2A1 polypeptide, SEQ ID NO:3, expressed in COS-1 cells (protein, listed as Homo Sapiens)
chain: B1 Sulfotransferase 2A1 with P63A, T90S

What follows are molecules tested on SULT2A1 (assay: SULT2A1 enzyme activity assay: sulfate conjugation of DHEA with 35S-PAPS, COS-1 cytosol preparations of recombinant allozymes). Conditions: not given.
Format: biochemical, human
Protocol: Activity of SULT2A1 polypeptides can be altered relative to the reference SULT2A1 polypeptide. […] Other allozymes can have increased activity relative to the reference SULT2A1 polypeptide. Activity of SULT2A1 polypeptides can be assessed in vitro using a sulfate acceptor substrate such as DHEA and a donor sulfate molecule such as PAPS. In general, recombinant SULT2A1 polypeptides can be incubated at 37° C. with 0.4 μM ^35S-PAPS and 5 μM DHEA in a potassium phosphate buffer (5 mM, pH 6.5). Reactions can be stopped by precipitating PAPS and SULT2A1 polypeptide (e.g., with barium hydroxide, barium acetate, and zinc sulfate). After centrifugation of the reaction, radioactivity in the supernatant is assessed. SULT2A1 activity is expressed as nmoles of sulfate conjugated product formed per hour of incubation. See, Campbell, N. R. C. et al., Biochem. Pharmacol., 36:1435-1446 (1987).
COS-1 cell expression: Five different SULT2A1 expression constructs were made using the pCR3.1 expression vector. Four of the constructs were designed to express SULT2A1 allozymes, while the remaining construct was designed to express a wild type SULT2A1 polypeptide. All SULT2A1 cDNA sequences containing SULT2A1 nucleotide sequence variants used to create the expression constructs were created by site directed mutagenesis using the method described by Ho et al., Gene 77(1):51-9 (1989). Each SULT2A1 cDNA was amplified by PCR and subcloned into the eukaryotic expression vector pCR3.1 (Promega, Madison, Wis.). After subcloning, all inserts were sequenced to assure that no spurious nucleotide point mutations had been introduced during the PCR amplifications. […] As a control, a transfection was also performed with “empty” pCR3.1, i.e., vector lacking an insert, to make it possible to correct for endogenous COS-1 cell SULT activity. The control plasmid pSV-β-galactosidase (Promega) was cotransfected with each SULT2A1 construct to make it possible to correct for transfection efficiency. Two independent transfections, each consisting of three separate plates, were performed with each of the expression constructs.
After 48 hours in culture, the transfected cells were harvested and high speed supernatant (HSS) cytosol preparations were prepared as described by Wood, T. C. et al., Biochem. Biophys. Res. Commun., 198:1119-1127 (1994). Aliquots of these cytosol preparations were stored at −80° C. prior to assay.
Enzyme Assays: β-galactosidase activity in each of the COS-1 HSS preparations was measured with the β-galactosidase Enzyme Assay System (Promega, Madison, Wis.). These HSS preparations of recombinant SULT2A1 allozymes were used for the activity studies without any further purification. The protein concentration of each recombinant protein preparation was determined by the dye-binding method of Bradford with bovine serum albumin (BSA) as a standard.
SULT2A1 enzyme activity was measured with an assay that involves sulfate conjugation of a sulfate acceptor substrate, DHEA, in the presence of the sulfate donor 3′-phosphoadenosine-5′-phosphosulfate (PAPS). See, Campbell, N. R. C. et al., Biochem. Pharmacol., 36:1435-1446 (1987). Briefly, 0.4 μM ^35S-PAPS and a HSS preparation were reacted with 5 μM DHEA in 5 mM potassium phosphate buffer at pH 6.5. […] Cytosol from COS-1 cells that had been transfected with empty pCR3.1 was used to correct for endogenous SULT activity. Because SULTs display profound substrate inhibition, DHEA concentrations that ranged from 100 pM to 1 mM were tested with each recombinant allozyme to ensure that the assays were performed at DHEA concentrations that yielded maximal activity for that allozyme. Enzyme activity was expressed as nanomoles (nmoles) of sulfate conjugated product formed per hour of incubation. Apparent Km values for PAPS were determined in the presence of 5 μM DHEA with six PAPS concentrations that varied from 0.0625 μM to 2 μM. […]
B1 was tested, and the “activity relative to the reference SULT2A1 polypeptide (in words)” value was “reduced activity”.
For B2, the “activity relative to the reference SULT2A1 polypeptide (in words)” value was “reduced activity”.
In the case of B3, the “activity relative to the reference SULT2A1 polypeptide (in words)” value is reported as “comparable to the reference SULT2A1 polypeptide”.
B4 was tested, and the “activity relative to the reference SULT2A1 polypeptide (in words)” value was “reduced activity”.

Same assay, conditions: apparent Km for DHEA; read-out: DHEA Km
B1 gave a Km of 0.21 ± 0.01 µM.
B2 gave a Km of 0.905 ± 0.053 µM.
B5 was tested, and the Km was 0.247 ± 0.071 µM.
Molecule B3 has a Km of 0.245 ± 0.012 µM.
B4 was tested, and the Km was 0.29 ± 0.012 µM.

Same assay, conditions: apparent Km for PAPS in the presence of 5 μM DHEA; read-out: PAPS Km
B1 showed a Km of 0.0082 ± 0.00132 µM.
B2 showed a Km of 0.0102 ± 0.00096 µM.
B5 was tested, and the Km was 0.0218 ± 0.00086 µM.
B3 was tested, and the Km was 0.0227 ± 0.00062 µM.
B4 showed a Km of 0.0114 ± 0.0003 µM.

Same assay, conditions: percentage of WT SULT2A1 enzyme activity; 5 μM DHEA, 0.4 μM 35S-PAPS; COS-1 cytosol; corrected for transfection efficiency
B1 was tested, and the “Enzyme Activity (%)” value was 57%.
In the case of B2, the “Enzyme Activity (%)” value is reported as 15%.
For B5, the “Enzyme Activity (%)” value was 100%.
In the case of B4, the “Enzyme Activity (%)” value is reported as 42%.

Same assay, conditions: ratio of enzymatic activity to immunoreactive protein
For B1, the “Enzyme activity: immunoreactive protein” value was 2.1.
In the case of B2, the “Enzyme activity: immunoreactive protein” value is reported as 7.5.
B5 was tested, and the “Enzyme activity: immunoreactive protein” value was 1.0.
For B3, the “Enzyme activity: immunoreactive protein” value was 1.2.
B4 was tested, and the “Enzyme activity: immunoreactive protein” value was 1.6.

Same assay, conditions: reduction relative to wild type
For B1, the “decrease in enzyme activity” value was 43%.
In the case of B3, the “decrease in enzyme activity” value is reported as 85%.
